The record followed here is PMC2779222 (The Journal of Cell Biology, 2009).

One data set deals with ΔN–CEACAM1-3L–YFP (rat) (UniProt P16573). As to the kind of experiment: cross-linking.
The data set “cross-linking” concerns the molecule itself. As to the kind of experiment: cross-linking.

In general, stoichiometry N refers to the number of molecules, sites or subunits per partner or assembly. For “ΔN–CEACAM1-3L–YFP (from UniProt P16573 35-519) (domain or fragment)”, in the data set with ΔN–CEACAM1-3L–YFP (rat), the stoichiometry N came to 2.

B1: CEACAM1-4ΔCyto–YFP (domain or fragment, rat, UniProt P16573 35-448, looked up)
chain: QVTVDAVPPNVVEEKSVLLLAHNLPQEFQVFYWYKGTTLNPDSEIARYIRSDNMSKTGPAYSGRETIYSNGSLFFQNVNKTDERAYTLSVFDQQFNPIQTSVQFRVYPALQKPNVTGNNSNPMEGEPFVSLMCEPYTNNTSYLWSRNGESLSEGDRVTFSEGNRTLTLLNVRRTDKGYYECEARNPATFNRSDPFNLDVIYGPDAPVISPPDIYLHQGSNLNLSCHADSNPPAQYFWLINEKLQTSSQELFISNITTNNSGTYACFVNNTVTGLSRTTVKNITVFEPVTQPSIQITNTTVKELGSVTLTCFSKDTGVSVRWLFNSQSLQLTDRMTLSQDNSTLRIDPIKREDAGDYQCEISNPVSFRISHPIKLDVIPDPTQGNSGLSEGAIAGIVIGSVAGVALIAALAYFLY
Consider B1, for which the “stoichiometry N” value in the data set “cross-linking” was determined as 2.
